US20200024322A1 (Eli Lilly, published 2020)
Numbered stars: 1 amine (or outer) side, 2 acyl side, 3 side chain; on linkers, the order of the positions; unused ones are H or OH. Square brackets hold non-standard residues; d marks the D form. Side chains are listed from the residue outwards. Ends that are not written are not given here. * marks the point of attachment. C18 diacid = O=C(O)CCCCCCCCCCCCCCCCC(=O)*; γGlu = O=C(O)[C@H](CCC(=O)[*:2])N[*:1]; AEEA = NCCOCCOCC(=O)O; Aib = CC(C)(N)C(=O)O

T1: human GIP receptor (human, UniProt P48546 22-466)
T1 construct: whole, on cells; also called hGIPR; hGIP-R
T1 sequence (looked up): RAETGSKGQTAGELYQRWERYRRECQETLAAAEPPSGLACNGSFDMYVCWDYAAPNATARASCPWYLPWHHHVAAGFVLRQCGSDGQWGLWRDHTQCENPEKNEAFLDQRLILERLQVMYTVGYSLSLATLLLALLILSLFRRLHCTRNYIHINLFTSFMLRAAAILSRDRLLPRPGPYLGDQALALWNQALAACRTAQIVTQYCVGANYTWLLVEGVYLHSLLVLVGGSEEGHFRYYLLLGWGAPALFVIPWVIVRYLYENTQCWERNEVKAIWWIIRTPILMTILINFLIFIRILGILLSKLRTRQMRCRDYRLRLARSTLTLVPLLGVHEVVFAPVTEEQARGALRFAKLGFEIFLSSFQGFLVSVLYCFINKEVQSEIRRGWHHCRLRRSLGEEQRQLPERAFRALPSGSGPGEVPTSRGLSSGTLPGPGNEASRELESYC


Columns and labels:
human GIP receptor = biological target: T1, human GIP receptor; assay: [125I]-GIP competition SPA, hGIPR membranes
human GLP-1 receptor = biological target: T2, human GLP-1 receptor (human, UniProt P43220 24-463); assay: [125I]-GLP-1 competition SPA, hGLP-1R membranes
T2 construct: whole, on cells; also called hGLP-1R; hGLP1R
Outline: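 Competition binding in 25 mM HEPES pH 7.4, 2.5 mM CaCl₂, 1 mM MgCl₂, 0.1% bacitracin, 0.003% TWEEN-20, EDTA-free protease inhibitors. IC₅₀ from four-parameter nonlinear fit; Kᵢ given as geometric mean ± SEM, n = independent replicates on different days.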

human glucagon receptor = biological target: T3, human glucagon receptor (human, UniProt P47871 26-477); assay: [125I]-Gcg competition SPA, hGcgR membranes
T3 construct: whole, on cells; also called hGcgR; GcgR
T3 sequence (P47871 26-477): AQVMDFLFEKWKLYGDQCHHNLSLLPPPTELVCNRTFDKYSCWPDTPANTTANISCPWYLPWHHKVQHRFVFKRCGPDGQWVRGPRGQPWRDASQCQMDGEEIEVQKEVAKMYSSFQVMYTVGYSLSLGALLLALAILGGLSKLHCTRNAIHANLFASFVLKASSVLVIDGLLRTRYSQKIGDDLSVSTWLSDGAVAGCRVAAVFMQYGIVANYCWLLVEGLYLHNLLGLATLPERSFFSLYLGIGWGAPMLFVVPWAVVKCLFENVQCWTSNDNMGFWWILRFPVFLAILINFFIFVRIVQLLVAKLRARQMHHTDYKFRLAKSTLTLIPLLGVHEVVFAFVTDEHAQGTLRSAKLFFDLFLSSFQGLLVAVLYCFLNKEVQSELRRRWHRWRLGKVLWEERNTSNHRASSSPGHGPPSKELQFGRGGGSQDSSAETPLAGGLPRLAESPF

| Binder | Ki (human GIP receptor) | Ki (human GLP-1 receptor) | Ki (human glucagon receptor) |
| --- | --- | --- | --- |
| YXEGTFTSDYSIXLDKKAQXAFIEYLIEGGPSSG (Aib2; αMeL13; K17((2-[2-(2-Amino-ethoxy)-ethoxy]-acetyl)2-(γ-Glu)-CO-(CH2)16-CO2H); Aib20; C-terminal NH2) [Example 300] | 0.0504 nM | 2.13 nM | 251 nM |
| YXEGTXTSDYSILLDKKAQXAFIEYLIEGGPSSG (Aib2; αMeF(2F)6; K17((2-[2-(2-Amino-ethoxy)-ethoxy]-acetyl)2-(γ-Glu)-CO-(CH2)16-CO2H); Aib20; C-terminal NH2) [Example 302] | 0.0289 nM | 0.617 nM | 18.5 nM |
| YXEGTXTSDYSILLDKKAQXAFIEYLIEGGPSSG (Aib2; αMeF6; K17((2-[2-(2-Amino-ethoxy)-ethoxy]-acetyl)2-(γ-Glu)-CO-(CH2)16-CO2H); Aib20; C-terminal NH2, also called GG-650) [Example 301] | 0.0273 nM | 0.875 nM | 44.4 nM |
| YXEGTXTSDYSILLDEKAQXAFIEYLIEGGPSSG (Aib2; αMeF(2F)6; K17((2-[2-(2-Amino-ethoxy)-ethoxy]-acetyl)2-(γ-Glu)-CO-(CH2)16-CO2H); Aib20; C-terminal NH2) [Example 311] | 0.0497 nM | 11.5 nM | 115 nM |
| YXEGTXTSDYSILLDEKAQXAFIEYLIEGGPSSG (Aib2; αMeF6; K17((2-[2-(2-Amino-ethoxy)-ethoxy]-acetyl)2-(γ-Glu)-CO-(CH2)16-CO2H); Aib20; C-terminal NH2) [Example 307] | 0.0773 nM | 5.1 nM | 117 nM |
| YXEGTFTSDYSIXLDEKAQXAFIEYLIEGGPSSG (Aib2; αMeL13; K17((2-[2-(2-Amino-ethoxy)-ethoxy]-acetyl)2-(γ-Glu)-CO-(CH2)16-CO2H); Aib20; C-terminal NH2) [Example 303] | 0.058 nM | 3.69 nM | 502 nM |
| YXEGTXTSDYSILLDKKAQXAFIEYLIAGGPSSG (Aib2; αMeF6; K17((2-[2-(2-Amino-ethoxy)-ethoxy]-acetyl)2-(γ-Glu)-CO-(CH2)16-CO2H); Aib20; C-terminal NH2) [Example 309] | 0.0264 nM | 1.04 nM | 64.1 nM |
| YXEGTXTSDYSILLDKKAQXEFIEYLIEGGPSSG (Aib2; αMeF(2F)6; K17((2-[2-(2-Amino-ethoxy)-ethoxy]-acetyl)2-(γ-Glu)-CO-(CH2)16-CO2H); Aib20; C-terminal NH2) [Example 312] | 0.0348 nM | 1.63 nM | 106 nM |
| YXEGTXTSDYSILLDKKAQXEFIEYLIAGGPSSG (Aib2; αMeF(2F)6; K17((2-[2-(2-Amino-ethoxy)-ethoxy]-acetyl)2-(γ-Glu)-CO-(CH2)16-CO2H); Aib20; C-terminal NH2) [Example 314] | 0.027 nM | 0.717 nM | 116 nM |
| YXEGTXTSDYSILLDKKAQXAFIEYLIAGGPSSG (Aib2; αMeF(2F)6; K17((2-[2-(2-Amino-ethoxy)-ethoxy]-acetyl)2-(γ-Glu)-CO-(CH2)16-CO2H); Aib20; C-terminal NH2) [Example 313] | 0.0261 nM | 0.815 nM | 27.6 nM |
| YXEGTFTSDYSIXLDKKAQXAFIEYLIAGGPSSG (Aib2; αMeL13; K17((2-[2-(2-Amino-ethoxy)-ethoxy]-acetyl)2-(γ-Glu)-CO-(CH2)16-CO2H); Aib20; C-terminal NH2) [Example 305] | 0.025 nM | 0.83 nM | 352 nM |
| YXEGTXTSDYSILLDKKAQXEFIEYLIEGGPSSG (Aib2; αMeF6; K17((2-[2-(2-Amino-ethoxy)-ethoxy]-acetyl)2-(γ-Glu)-CO-(CH2)16-CO2H); Aib20; C-terminal NH2) [Example 308] | 0.0288 nM | 1.01 nM | 94.2 nM |
| YXEGTXTSDYSILLDKKAQXEFIEYLIAGGPSSG (Aib2; αMeF6; K17((2-[2-(2-Amino-ethoxy)-ethoxy]-acetyl)2-(γ-Glu)-CO-(CH2)16-CO2H); Aib20; C-terminal NH2) [Example 310] | 0.0315 nM | 1.7 nM | 174 nM |
| XXEGTFTSDYSIXLDKKAQXEFIEXLIAGGPSSGAPPPS (D-Tyr1; Aib2; αMeL13; K17((2-[2-(2-Amino-ethoxy)-ethoxy]-acetyl)2-(γ-Glu)-CO-(CH2)18-CO2H); Aib20; αMeY25; C-terminal NH2) [Example 292] | 0.0547 nM | 1.19 nM | 595 nM |
| XXEGTFTSDYSIXLDXKAQXEFIEXLIAGGPSSGAPPPS (D-Tyr1; Aib2; αMeL13; Orn16; K17((2-[2-(2-Amino-ethoxy)-ethoxy]-acetyl)2-(γ-Glu)-CO-(CH2)18-CO2H); Aib20; αMeY25; C-terminal NH2) [Example 293] | 0.0775 nM | 1.64 nM | 668 nM |
| Y[Aib]EGTFTSDYSILLDKK([AEEA-AEEA-γGlu-C18 diacid])AQQAFIEYLIEGG-NH2 (N-terminus assumed; SMILES CC[C@H](C)[C@H](NC(=O)[C@H](CC(C)C)NC(=O)[C@H](Cc1ccc(O)cc1)NC(=O)[C@H](CCC(=O)O)NC(=O)[C@@H](NC(=O)[C@H](Cc1ccccc1)NC(=O)[C@H](C)NC(=O)[C@H](CCC(N)=O)NC(=O)[C@H](CCC(N)=O)NC(=O)[C@H](C)NC(=O)[C@H](CCCCNC(=O)COCCOCCNC(=O)COCCOCCNC(=O)CC[C@H](NC(=O)CCCCCCCCCCCCCCCCC(=O)O)C(=O)O)NC(=O)[C@H](CCCCN)NC(=O)[C@H](CC(=O)O)NC(=O)[C@H](CC(C)C)NC(=O)[C@H](CC(C)C)NC(=O)[C@@H](NC(=O)[C@H](CO)NC(=O)[C@H](Cc1ccc(O)cc1)NC(=O)[C@H](CC(=O)O)NC(=O)[C@H](CO)NC(=O)[C@@H](NC(=O)[C@H](Cc1ccccc1)NC(=O)[C@@H](NC(=O)CNC(=O)[C@H](CCC(=O)O)NC(=O)C(C)(C)NC(=O)[C@@H](N)Cc1ccc(O)cc1)[C@@H](C)O)[C@@H](C)O)[C@@H](C)CC)[C@@H](C)CC)C(=O)N[C@@H](CCC(=O)O)C(=O)NCC(=O)NCC(N)=O) [Example 294] | 0.205 nM | 2.92 nM | 629 nM |
| YXEGTFTSDYSIXLDEKAQXAFIEYLIEGGPSSGAPPPS (Aib2; αMeL13; K17((2-[2-(2-Amino-ethoxy)-ethoxy]-acetyl)2-(γ-Glu)-CO-(CH2)16-CO2H); Aib20; C-terminal NH2) [Example 323] | 0.0516 nM | 1.65 nM | 300 nM |
| XXEGTFTSDYSIXLDKKAQXAFIEYLIAGGPSSGAPPPS (D-Tyr1; Aib2; αMeL13; K17((2-[2-(2-Amino-ethoxy)-ethoxy]-acetyl)2-(γ-Glu)-CO-(CH2)18-CO2H); Aib20; C-terminal NH2) [Example 340] | 0.0507 nM | 2.08 nM | 250 nM |
| FXEGTFTSDYSIXLDKKAQXAFIEYLIAGGPSSGAPPPS (Aib2; αMeL13; K17((2-[2-(2-Amino-ethoxy)-ethoxy]-acetyl)2-(γ-Glu)-CO-(CH2)18-CO2H); Aib20; C-terminal NH2) [Example 337] | 0.0363 nM | 1.61 nM | 335 nM |
| YXEGTFTSDYSIXLDEKAQXAFIEYLIAGGPSSGAPPPS (Aib2; αMeL13; K17((2-[2-(2-Amino-ethoxy)-ethoxy]-acetyl)2-(γ-Glu)-CO-(CH2)18-CO2H); Aib20; C-terminal NH2) [Example 332] | 0.0497 nM | 7.87 nM | 397 nM |
| YXEGTFTSDYSIXLDKKAQXEFIEYLIAGGPSSGAPPPS (Aib2; αMeL13; K17((2-[2-(2-Amino-ethoxy)-ethoxy]-acetyl)-(γ-Glu)-CO-(CH2)18-CO2H); Aib20; C-terminal NH2) [Example 339] | 0.0388 nM | 2.69 nM | 873 nM |
| XXEGTFTSDYSIXLDKKAQXEFIEYLIAGGPSSGAPPPS (D-Tyr1; Aib2; αMeL13; K17((2-[2-(2-Amino-ethoxy)-ethoxy]-acetyl)2-(γ-Glu)-CO-(CH2)18-CO2H); Aib20; C-terminal NH2) [Example 290] | 0.0617 nM | 2.44 nM | 308 nM |
| YXEGTFTSDYSIXLDKKAQXEFIEYLIEGGPSSGAPPPS (Aib2; αMeL13; K17((2-[2-(2-Amino-ethoxy)-ethoxy]-acetyl)2-(γ-Glu)-CO-(CH2)18-CO2H); Aib20; C-terminal NH2) [Example 333] | 0.0634 nM | 4.25 nM | 578 nM |
| XXEGTFTSDYSIXLDKKAQXAFIEYLIEGGPSSGAPPPS (D-Tyr1; Aib2; αMeL13; K17((2-[2-(2-Amino-ethoxy)-ethoxy]-acetyl)2-(γ-Glu)-CO-(CH2)18-CO2H); Aib20; C-terminal NH2) [Example 334] | 0.0646 nM | 2.17 nM | 192 nM |
| FXEGTFTSDYSIXLDKKAQXAFIEYLIEGGPSSGAPPPS (Aib2; αMeL13; K17((2-[2-(2-Amino-ethoxy)-ethoxy]-acetyl)2-(γ-Glu)-CO-(CH2)18-CO2H); Aib20; C-terminal NH2) [Example 327] | 0.0667 nM | 2.1 nM | 114 nM |
| XXEGTFTSDYSIXLDEKAQXAFIEYLIAGGPSSGAPPPS (D-Tyr1; Aib2; αMeL13; K17((2-[2-(2-Amino-ethoxy)-ethoxy]-acetyl)2-(γ-Glu)-CO-(CH2)18-CO2H); Aib20; C-terminal NH2) [Example 341] | 0.0559 nM | 6.49 nM | 39.7 nM |
